The values that follow come from PMC6636998, “Functional cross-talk between allosteric effects of activating and inhibiting ligands underlies PKM2 regulation” (eLife, 2019).

The series deals with the molecule itself. The series can be described thus: native MS; nano-ESI, PKM2 in 200 mM ammonium acetate pH 6.8, with added saturating FBP (10 µM FBP to 10 µM PKM2; 10:1 FBP:PKM2 for the AlloHub mutants); also with 300 µM Phe added before or after FBP.

B1: PKM2(F244V) (enzyme)
chain: not shown
notes: pyruvate kinase M2 (PKM2), Homo sapiens, Uniprot ID P14618-1; pET28a-His-PKM2(F244V), made from pET28a-His-PKM2(WT); also called AlloHubM F244V; source: E. coli BL21(DE3)pLysS, purified (HisTrap IMAC, thrombin cleavage, Superdex 200 SEC); not shown: His6, N-terminal, cleaved
With B1, the binding result is reported as “binds”.

B2: PKM2(I124G) (enzyme)
chain: not shown
notes: pyruvate kinase M2 (PKM2), Homo sapiens, Uniprot ID P14618-1; pET28a-His-PKM2(I124G), made from pET28a-His-PKM2(WT); also called AlloHubM I124G; source: E. coli BL21(DE3)pLysS, purified (HisTrap IMAC, thrombin cleavage, Superdex 200 SEC); not shown: His6, N-terminal, cleaved
As to B2, the binding result is on record as “binds”.

B3: PKM2(C358A) (enzyme)
chain: not shown
notes: pyruvate kinase M2 (PKM2), Homo sapiens, Uniprot ID P14618-1; pET28a-His-PKM2(C358A), made from pET28a-His-PKM2(WT); also called AlloHubM C358A; source: E. coli BL21(DE3)pLysS, purified (HisTrap IMAC, thrombin cleavage, Superdex 200 SEC); not shown: His6, N-terminal, cleaved
One may read the stoichiometry N as a count of units in the complex or per binding partner. Consider B3, for which the “stoichiometry N” value was found to be 4.

B4: PKM2(A327S) (enzyme)
chain: not shown
notes: pyruvate kinase M2 (PKM2), Homo sapiens, Uniprot ID P14618-1; pET28a-His-PKM2(A327S), made from pET28a-His-PKM2(WT); also called AlloHubM A327S; source: E. coli BL21(DE3)pLysS, purified (HisTrap IMAC, thrombin cleavage, Superdex 200 SEC); not shown: His6, N-terminal, cleaved
B4: the “stoichiometry N” value stood at 4.

B5: PKM2(K305Q) (enzyme)
chain: not shown
notes: pyruvate kinase M2 (PKM2), Homo sapiens, Uniprot ID P14618-1; pET28a-His-PKM2(K305Q), made from pET28a-His-PKM2(WT); also called AlloHubM K305Q; source: E. coli BL21(DE3)pLysS, purified (HisTrap IMAC, thrombin cleavage, Superdex 200 SEC); not shown: His6, N-terminal, cleaved
For B5, the “stoichiometry N” value was 4.
